Results on 1 molecule are retold here after patent publication US9802942B2, “Substituted 4-methyl-pyrrolo[1,2-A]pyrimidine-8-carboxamide compounds and uses thereof for modulating glucocerebrosidase activity” (Northwestern University, priority 2015, dated 2017).

The target in one test is T1, wt. GCase (Homo sapiens, UniProt P04062).
T1 construct: purchased Shire Human Genetic Therapies, Inc. Vpriv
T1 sequence (P04062 40-536): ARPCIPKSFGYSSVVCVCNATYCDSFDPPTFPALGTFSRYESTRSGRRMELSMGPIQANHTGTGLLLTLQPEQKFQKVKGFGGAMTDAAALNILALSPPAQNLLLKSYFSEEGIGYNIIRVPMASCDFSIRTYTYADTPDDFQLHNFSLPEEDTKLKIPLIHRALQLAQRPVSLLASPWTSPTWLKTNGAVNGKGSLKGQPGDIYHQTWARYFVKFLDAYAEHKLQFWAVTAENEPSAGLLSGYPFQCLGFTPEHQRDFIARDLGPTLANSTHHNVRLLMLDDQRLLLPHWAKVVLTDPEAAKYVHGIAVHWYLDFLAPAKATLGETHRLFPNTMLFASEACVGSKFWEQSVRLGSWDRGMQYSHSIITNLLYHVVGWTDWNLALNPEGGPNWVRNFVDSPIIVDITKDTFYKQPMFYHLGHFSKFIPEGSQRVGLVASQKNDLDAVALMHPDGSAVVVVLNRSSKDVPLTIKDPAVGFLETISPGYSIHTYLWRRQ
Kind of test: Saposin C activation assay with 4MU-Glc substrate, wt. enzyme. The class given is biochemical. The following applies: pH 4.7. The protocol: (§1) Saposin C (0.5 μL/well) was added to a black 96-well plate (the final titration was 1.72 nM to 1.76 μM, 12 concentrations). The compound 4 activated enzyme and wt. enzyme (33.5 μL/well, 7.5 nM final concentration) in assay buffer (50 mM Citric acid, 176 mM K2HPO4, 0.01% tween-20, 0.01% (g/mL) phosphatidylserine, pH 4.7) was added to the wells, respectively. After 5 min of incubation at room temperature, the enzyme reaction was initiated by the addition of 33 μL/well 4MU-Glc substrate. Final concentrations of the 4MU-Glc substrate was 1.5 mM. The reaction was terminated by the addition of 33 μL/well stop solution (1 M NaOH and 1 M glycine mixture, pH 10) after 30 min of incubation at 37° C. The fluorescence was then measured in the plate reader with Ex=365 nm and Em=440 nm.

A further test addresses T2, covalent activated GCase (Homo sapiens, UniProt P04062).
T2 construct: purchased Shire Human Genetic Therapies, Inc. Vpriv
T2 sequence (P04062 40-536): T1 sequence (P04062 40-536)
Nature of the test: Saposin C activation assay with 4MU-Glc substrate, probe 4 pre-activated enzyme. The following applies: pH 4.7. The class given is biochemical. The protocol: as §1

The AC50 is the concentration giving half of the maximal activity seen.

B1: Saposin C: a natural co-factor of GCase (protein, UniProt P07602 311-390, looked up)
Saposin-C: SDVYCEVCEFLVKEVTKLIDNNKTEKEILDAFDKMCSKLPKSLSEECQEVVDTYGSSILSILLEEVSPELVCSMLHLCSG
modifications: Saposin-C
notes: a natural co-factor of GCase
With B1, the AC50 with wt. GCase was found to be 100 nM; with covalent activated GCase, 71 nM.
